According to patent US20120253017A1 (published 2012):
Residue numbers refer to the chain shown, from its start.

T1: cyno c-kit (recombinant, on BIAcore chip) (cynomolgus monkey)
T1 chain: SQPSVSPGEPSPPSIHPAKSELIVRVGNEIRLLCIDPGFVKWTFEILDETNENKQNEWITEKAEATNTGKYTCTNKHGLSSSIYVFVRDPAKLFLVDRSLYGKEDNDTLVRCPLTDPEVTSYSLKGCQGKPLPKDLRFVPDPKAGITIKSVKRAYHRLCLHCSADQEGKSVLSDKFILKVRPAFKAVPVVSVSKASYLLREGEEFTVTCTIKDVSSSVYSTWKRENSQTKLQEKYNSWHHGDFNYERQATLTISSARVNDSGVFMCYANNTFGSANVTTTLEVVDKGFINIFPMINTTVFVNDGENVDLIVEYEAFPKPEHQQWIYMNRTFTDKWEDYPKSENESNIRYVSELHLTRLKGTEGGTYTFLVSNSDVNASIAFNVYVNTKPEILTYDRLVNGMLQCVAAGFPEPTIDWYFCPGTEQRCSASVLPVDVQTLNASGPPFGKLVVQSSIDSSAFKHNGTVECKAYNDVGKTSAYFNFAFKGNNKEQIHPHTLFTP

B1: anti-MLC mAb 39-15 purified from the hybridoma (ATCC HB11709) (antibody, mouse IgG1, V domains shown)
VH: QVQLQQSGAELASPGASVKLSCKASGYTFTTYWIHWVKQRPGQGLEWIGAIYPGDGDTRYTQNFKDKATLTADSSSSTAYMQLSSLASEDSAVFYCAREGTPPFTTATFAMAYWGQGTSVTVSS
VL: DIVMSQSPSSLAVSAGDKVTMSCKSSQSLLYSRTRKNYLAWYQQKPGQSPKLLIYWASTRQSGVPDRFTGSGSGTDFTLTISSVQAEDLAVYYCKQSYNLFTFGSGTKLEIKR
notes: mouse IgG1 kappa; also called anti-MLC (Hybridoma)
B2: recombinant anti-MLC mAb (39-15) (antibody, mouse IgG1, V domains shown)
VH: B1 VH
VL: B1 VL
notes: mouse IgG1 heavy and mouse kappa constant regions, expressed in HEK293E
B3: humanised 39-15 mAb 1-39:1-3 (antibody, V domains shown)
VH: QVQLVQSGAEVKKPGASVKVSCKASGYTFTTYWIHWVRQAPGQRLEWMGAIYPGDGDTRYTQNFKDRVTITRDTSASTAYMELSSLRSEDMAVYYCAREGTPPFTTATFAMAYWGQGTLVTVSS
VL: DIQMTQSPSSLSASVGDRVTITCKSSQSLLYSRTRKNYLAWYQQKPGKAPKLLIYWASTRQSGVPSRFSGSGSGTDFTLTISSLQPEDFATYYCKQSYNLFTFGQGTKLEIKR
B4: humanised 39-15 mAb 1-39:1-46 (antibody, V domains shown)
VH: B3 VH with R44G, I70M, A76T, A79V, M91T
VL: B3 VL
B5: humanised 39-15 mAb 4-1:1-3 (antibody, human IgG1, kappa, V domains shown)
VH: B3 VH
VL: DIVMTQSPDSLAVSLGERATINCKSSQSLLYSRTRKNYLAWYQQKPGQPPKLLIYWASTRQSGVPDRFSGSGSGTDFTLTISSLQAEDVAVYYCKQSYNLFTFGQGTKLEIKR
notes: human IgG1 kappa
B6: humanised 39-15 mAb 4-1:1-46 (antibody, human IgG1, V domains shown)
VH: B3 VH with R44G, I70M, A76T, A79V, M91T
VL: B5 VL
notes: human IgG1 kappa
B7: humanised 39-15 mAb 4-1:1-8 (antibody, V domains shown)
VH: B3 VH with P41T, R44G, I70M, D73N, A76I, M91T
VL: B5 VL
B8: humanised 39-15 mAb 4-1:5-51 (antibody, human IgG1, kappa, V domains shown)
VH: EVQLVQSGAEVKKPGESLKISCKGSGYSFTTYWIHWVRQMPGKGLEWMGAIYPGDGDTRYTQNFKDQVTISADKSISTAYLQWSSLKASDTAMYYCAREGTPPFTTATFAMAYWGQGTLVTVSS
VL: B5 VL
notes: human IgG1 kappa
B9: DOM28h-33 (other)
chain: EVQLLESGGGLVQPGGSLRLSCAVSGFTFWNYRMGWVRQAPGKGLEWVSSITPQGTHTYYADSVKGRFTISRDNSKNTLYLQMNSLRAEDTAVYYCAKILSMSENHFDYWGQGTLVTVSS
notes: dAb, C-terminal FLAG tag (pDOM10); also called DOM28h-033
B10: DOM28h-66 (other)
chain: EVQLLESGGGLVQPGGSLRLSCAASGFTFPLYEMHWVRQAPGKGLEWVSRISPTGATTYYADSVKGRFTISRDNSKNTLYLQMNSLRAEDTAVYYCAKDRRGRAGVTFDYWGQGTLVTVSS
notes: dAb, C-terminal FLAG tag (pDOM10); also called DOM28h-066
B11: DOM28h-84 (other)
chain: EVQLLESGGGLVQPGGSLRLSCAASGFTFSSYGMSWVRQAPGKGLEWVSWISGTGSGTYYADSVKGRFTISRDNSKNTLYLQMNSLRAEDTAVYYCAKGVPGNNRALFDYWGQGTLVTVSS
notes: dAb, C-terminal FLAG tag (pDOM10); also called DOM28h-084
B12: DOM28h-110 (other)
chain: EVQLLESGGGLVQPGGSLRLSCAASGFTFRKYAMMWVRQAPGKGLEWVSTITASGGGTYYADSVKGRFTISRDNSKNTLYLQMNSLRAEDTAVYYCAKPLNQYATQFDYWGQGTLVTVSS
notes: dAb, C-terminal FLAG tag (pDOM10)
B13: DOM28h-43 (other)
chain: DIQMTQSPSSLSASVGDRVTITCRASSPIGESLKWYQQKPGKAPKLLIWGGSWLQSGVPSRFSGSGSGTDFTLTISSLQPEDFATYYCGPGRGWPLTFGQGTKVEIKR
notes: dAb, C-terminal FLAG tag (pDOM10); also called DOM28h-043
B14: DOM28h-7 (other)
chain: DIQMTQSPSSLSASVGDRVTITCRASSNIDDDLGWYQQKPGKAPKLLIGWSSDLQSGVPSRFSGSGSGTDFTLTISSLQPEDFATYYCAQWWRGPATFGQGTKVEIKR
notes: as for B12
B15: DOM28h-26 (other)
chain: B14 chain with S27R, D32E, G34A, G49A, S51G, A89G, W91F, W92R, A96L
notes: as for B12
B16: DOM28h-20 (other)
chain: DIQMTQSPSSLSASVGDRVTITCRASRSISDELTWYQQKPGKAPKLLISWGSSLQSGVPSRFSGSGSGTDFTLTISSLQPEDFATYYCLQTWELPVTFGQGTKVEIKR
notes: as for B12
B17: DOM28h-54 (other)
chain: EVQLLESGGGLVQPGGSLRLSCAASGFTFESYDMSWVRQAPGKGLEWVSGIYPDGGATYYADSVKGRFTISRDNSKNTLYLQMNSLRAEDTAVYYCAKGEPNLFDYWGQGTLVTVSS
notes: as for B12
B18: DOM28h-73 (other)
chain: EVQLLESGGGLVQPGGSLRLSCAASGFTFDDYWMQWVRQAPGKGLEWVSSISDEGARTYYADSVKGRFTISRDNSKNTLYLQMNSLRAEDTAVYYCAEYPGLAHFGEDFDYWGQGTLVTVSS
notes: as for B12
B19: DOM28h-78 (other)
chain: EVQLLESGGGLVQPGGSLRLSCAASGFTFEHYPMGWVRQAPGKGLEWVSHISYDGTDTYYADSVKGRFTISRDNSKNTLYLQMNSLRAEDTAVYYCAKFHNQWDIYSFDYWGQGTLVTVSS
notes: as for B12
B20: DOM28h-79 (other)
chain: EVQLLESGGGLVQPGGSLRLSCAASGFTFKNYDMSWVRQAPGKGLEWVSGIWDDGWATYYADSVKGRFTISRDNSKNTLYLQMNSLRAEDTAVYYCAKGAATPGQTIFDYWGQGTLVTVSS
notes: as for B12
B21: DMS5052 (chimeric MLC mAb-cKIT dAb, DOM28m-007) (bispecific antibody)
heavy (part 1 of 2): B1 VH
heavy (part 2 of 2): STGEVQLLESGGGLVQPGGSLRLSCAASGFTFSNYAMGWVRQAPGKGLEWVSSISSSGFATYYADSVKGRFTISRDNSKNTLYLQMNSLRAEDTAVYYCAKSESRTFKAFDYWGQGTLVTVSS
light: B1 VL
notes: not shown: human IgG1 CH1-CH2-CH3
B22: DMS5056 (chimeric MLC mAb-cKIT dAb, DOM28m-107) (bispecific antibody)
heavy: not shown
light: DIVMSQSPSSLAVSAGDKVTMSCKSSQSLLYSRTRKNYLAWYQQKPGQSPKLLIYWASTRQSGVPDRFTGSGSGTDFTLTISSVQAEDLAVYYCKQSYNLFTFGSGTKLEIKRTVAAPSVFIFPPSDEQLKSGTASVVCLLNNFYPREAKVQWKVDNALQSGNSQESVTEQDSKDSTYSLSSTLTLSKADYEKHKVYACEVTHQGLSSPVTKSFNRGEC
B23: DMS5058 (chimeric MLC mAb-cKIT dAb, DOM28m-112) (bispecific antibody)
heavy: not shown
light: B22 light

Target: T2, mouse ventricular myosin light chain 1, GlySer(His)6 tag (mouse, UniProt P09542 1-204)
T2 construct: also called mouse vMLC-1
T2 sequence (P09542 other isoform, or with tags, fused parts or gaps): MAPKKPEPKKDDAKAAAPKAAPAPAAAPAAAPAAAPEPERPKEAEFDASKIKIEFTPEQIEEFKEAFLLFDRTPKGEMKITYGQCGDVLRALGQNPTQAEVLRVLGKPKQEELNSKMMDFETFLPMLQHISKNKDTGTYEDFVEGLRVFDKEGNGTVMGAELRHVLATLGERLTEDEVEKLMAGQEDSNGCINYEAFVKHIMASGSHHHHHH
Assay: BIAcore, vMLC-1 immobilised

Binder	Kd [nM]	koff [s⁻¹]	kon [M⁻¹ s⁻¹]
B1	0.0235	3.07e-05	1.31e+06
B2	0.0222	3.46e-05	1.56e+06

Target: T3, human ventricular myosin light chain 1, GlySer(His)6 tag (human, UniProt P08590 1-195, limits assumed)
T3 construct: also called human vMLC-1; vMLC1-6xHIS
T3 sequence (P08590 other isoform, or with tags, fused parts or gaps limits assumed): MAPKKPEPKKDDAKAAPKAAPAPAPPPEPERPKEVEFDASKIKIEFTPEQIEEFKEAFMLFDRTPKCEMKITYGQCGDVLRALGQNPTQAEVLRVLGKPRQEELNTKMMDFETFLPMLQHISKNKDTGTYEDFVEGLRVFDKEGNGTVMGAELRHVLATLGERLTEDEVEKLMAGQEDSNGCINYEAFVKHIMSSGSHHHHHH
Assay: BIAcore, vMLC-1 immobilised

Binder	Kd [nM]	koff [s⁻¹]	kon [M⁻¹ s⁻¹]
B1	0.0003	1.1e-06	3.5e+06
B2	0.0047	1.78e-05	3.81e+06

Target: T2, mouse ventricular myosin light chain 1, …
Assay: BIAcore, vMLC-1 immobilised
Remark: another data set of the same source
Description: (§1) Affinity of all 8 humanised mAbs was determined by BIAcore as described above.

Binder	koff [s⁻¹]	Kd [nM]	kon [M⁻¹ s⁻¹]
B3	8.8e-05		
B4	0.000122		
B5	6.6e-05	0.0396	1.67e+06
B6	7.65e-05	0.0426	1.79e+06
B7	7.78e-05	0.0589	1.32e+06
B8	2.16e-05	0.0153	1.42e+06

Target: T3, human ventricular myosin light chain 1, …
Assay: BIAcore, vMLC-1 immobilised
Remark: another data set of the same source
Description: as §1

Binder	koff [s⁻¹]	Kd [nM]	kon [M⁻¹ s⁻¹]
B3	2.17e-05		
B4	3.41e-05		
B5	1.52e-05	0.00825	1.84e+06
B6	1.63e-05	0.00818	1.99e+06
B7	1.87e-05	0.0128	1.46e+06
B8	2.65e-06	0.00169	1.57e+06

Target: T4, human c-kit (recombinant, on BIAcore chip or beads) (human, UniProt P10721 26-524)
T4 construct: extracellular domain; also called hcKIT; biotinylated human c-kit
T4 sequence (P10721 26-524): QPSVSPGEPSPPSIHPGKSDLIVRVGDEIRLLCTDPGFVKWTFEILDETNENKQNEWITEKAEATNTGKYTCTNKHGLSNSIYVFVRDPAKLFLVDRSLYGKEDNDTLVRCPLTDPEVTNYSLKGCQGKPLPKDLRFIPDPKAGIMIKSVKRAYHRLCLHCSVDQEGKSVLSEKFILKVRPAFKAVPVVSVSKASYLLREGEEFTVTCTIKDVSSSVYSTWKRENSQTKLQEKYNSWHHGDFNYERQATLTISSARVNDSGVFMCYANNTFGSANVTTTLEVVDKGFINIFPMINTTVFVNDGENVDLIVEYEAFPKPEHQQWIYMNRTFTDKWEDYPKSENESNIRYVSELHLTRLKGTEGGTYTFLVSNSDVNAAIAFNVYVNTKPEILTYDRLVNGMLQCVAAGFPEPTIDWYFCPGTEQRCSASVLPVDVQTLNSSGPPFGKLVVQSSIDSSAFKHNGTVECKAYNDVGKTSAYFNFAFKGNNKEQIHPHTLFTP
Assay: BIAcore, c-kit on SA chip
Description: All unique dAb clones were expressed in 50 ml cultures (OnEX plus carbenicillin) overnight at 37° C. and purified on protein A (VH dAbs) or protein L (VK dAbs). Purified dAbs were passed over a SA BIAcore chip coated with either human or mouse c-kit at 1 μM to identify those dAbs that bound specifically to either human or murine c-kit.

Binder	Kd [nM]
B9	48
B10	2900
B11	896
B12	3300
B13	239
B14	1400
B15	621
B16	1000
B17	490
B18	1300
B19	233
B20	218

Target: T1, cyno c-kit (recombinant, on BIAcore …)
Assay: BIAcore, c-kit on SA chip

Binder	Kd [nM]
B9	98.5
B11	10200
B13	345

Target: Myosin Light Chain (on streptavidin chip; vMLC1-sulfotag)
Sequence (chain, as listed by the source): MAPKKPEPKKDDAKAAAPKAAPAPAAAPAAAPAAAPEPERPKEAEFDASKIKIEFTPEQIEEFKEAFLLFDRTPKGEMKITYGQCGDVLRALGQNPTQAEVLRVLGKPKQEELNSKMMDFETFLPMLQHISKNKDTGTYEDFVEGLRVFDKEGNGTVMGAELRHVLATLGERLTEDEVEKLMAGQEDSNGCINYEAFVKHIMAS
Assay: BIAcore, bad fit

Binder	Kd [nM]
B21	0.047
B22	0.048
B23	0.042

Target: T4, human c-kit (recombinant, on BIAcore …)
Assay: BIAcore, dAb at 1000 and 500 nM
Description: Unique dAbs were expressed as bacterial supernatants in 2.5 L shake flasks in Onex media at 37° C. for 24 hrs at 250 rpm. dAbs were purified from the culture media by absorption to protein A or L agarose followed by elution with 10 mM glycine pH2.0.

Binder	Kd [nM]
B9	48
B10	2900
B11	896
B12	3300
